{"source": "paper PMC4497383", "target": "3xFLAG-tagged nascent chain of Sec61β with the transferrin receptor TMD, truncated at position 128 (TMD exposed)", "assay": "co-IP; unbound fractions of the translation reactions after anti-FLAG purification of the RNCs, immunoblotted relative to serial dilutions of total lysate (depletion)", "data": [{"substance": "SRP54 subunit of the signal recognition particle (SRP) (from UniProt G1STX4 1-499) (natural protein)", "values": [{"measurement": "percent of SRP in the lysate depleted", "result": 90, "unit": "%"}]}]}
